Experimental data from US20250346669A1.

Each substance was assayed against CD3 on CD3 expressing Jurkat cells (UniProt P07766) (assay: flow cytometry on CD3 expressing Jurkat cells; concentration of half maximal binding).

| Substance | EC50 |
| --- | --- |
| OKT3 Fab fragment | 23.7 nM |
| UCHT1 (IgG version of the monospecific anti-CD3 antibody) | 0.6 nM |
| UCHT1 Fab fragment | 0.6 nM |
| OKT3 (IgG version of the monospecific anti-CD3 antibody) | 0.3 nM |
